From paper PMC7058448

Molecular target: gp120-gp41 protomer of cleaved gp160, HIV-1 isolate 92UG037.8 (HIV-1 isolate 92UG037.8 (clade A))
Experiment: cryo-EM structure

gp120-gp41 protomer of cleaved gp160, HIV-1 isolate 92UG037.8 (complex)
stoichiometry N: 3
